Laboratory results from article PMC10397247.
Read-outs that look alike come from different tables or passages of the source.

Legend:
[1] = target: T1, APC9141-AA; assay: two-hybrid library CCmax;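 also: natural log of median RNA to DNA barcode read ratio; higher means stronger binding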
T1 chain: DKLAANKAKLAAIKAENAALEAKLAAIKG

[2] = target: T2, APC9182-AA; assay: two-hybrid library CCmax; settings: mean of both orientations;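 also: natural log of median RNA to DNA barcode read ratio; higher means stronger binding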
T2 chain: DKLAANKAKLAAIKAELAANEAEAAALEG

[3] = target: T3, APC9291-AA; assay: two-hybrid library CCmax; settings: mean of both orientations;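 also: natural log of median RNA to DNA barcode read ratio; higher means stronger binding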
T3 chain: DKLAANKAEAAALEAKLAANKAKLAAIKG

[4] = target: T4, APC9806-AA; assay: two-hybrid library CCmax; settings: mean of both orientations;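 also: natural log of median RNA to DNA barcode read ratio; higher means stronger binding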
T4 chain: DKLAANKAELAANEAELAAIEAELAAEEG

[5] = target: T5, 4H918-bA; assay: two-hybrid library CCNG1;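 also: natural log of median RNA to DNA barcode read ratio; higher means stronger binding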
T5 chain: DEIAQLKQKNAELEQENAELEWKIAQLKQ

[6] = target: T6, 4H953-bA; assay: two-hybrid library CCNG1;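 also: natural log of median RNA to DNA barcode read ratio; higher means stronger binding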
T6 chain: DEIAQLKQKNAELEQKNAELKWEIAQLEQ

[7] = target: T7, 4H967-bA; assay: two-hybrid library CCNG1
T7 chain: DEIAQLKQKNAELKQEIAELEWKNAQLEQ

[8] = target: T8, 4H968-bA; assay: two-hybrid library CCNG1
T8 chain: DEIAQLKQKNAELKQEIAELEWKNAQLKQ

[9] = target: T9, APC8516-AA; assay: two-hybrid library CCmax
T9 chain: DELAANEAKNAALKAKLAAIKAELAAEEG

[10] = target: T10, 4H510-AA; assay: two-hybrid library CCmax; settings: mean of both orientations
T10 chain: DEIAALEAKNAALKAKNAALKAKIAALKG

[11] = target: T11, 4H_APH; assay: two-hybrid library CCmax
T11 chain: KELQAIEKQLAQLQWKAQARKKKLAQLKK

[12] = target: T12, 4H_BCR; assay: two-hybrid library CCmax; settings: mean of both orientations
T12 chain: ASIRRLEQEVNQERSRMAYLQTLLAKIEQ

[13] = target: 4H_GCN4; assay: two-hybrid library CCmax
Sequence of 4H_GCN4 (chain, as listed by the source): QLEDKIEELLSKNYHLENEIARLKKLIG

[14] = target: GCN2_T; assay: two-hybrid library CCmax
[15] = target: T13, O11-AA; assay: two-hybrid library CCmax; settings: mean of both orientations
T13 chain: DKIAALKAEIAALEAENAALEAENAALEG

[16] = target: T14, O13-AA; assay: two-hybrid library CCmax; settings: mean of both orientations
T14 chain: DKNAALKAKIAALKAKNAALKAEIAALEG

[17] = target: T15, O14-AA; assay: two-hybrid library CCmax; settings: mean of both orientations
T15 chain: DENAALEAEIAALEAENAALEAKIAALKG

[18] = target: T16, 4H968-bN; assay: two-hybrid library CCNG1
T16 chain: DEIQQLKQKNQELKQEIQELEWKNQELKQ

Binder: DKLAANKAKLAAIKAENAALEAKLAAIKG [APC9141-AA]
- interaction score [1]: -2.08
- interaction score [2]: -1.82
- interaction score [3]: -1.86
- interaction score [4]: -1.67

Binder: DEIAQLKQKNAELEQENAELEWKIAQLKQ [4H918-bA]
- interaction score [5]: 0.453
- interaction score [6]: 1.53
- interaction score [7]: -0.684
- interaction score [8]: -0.293

Binder: DELAANEAKNAALKAKLAAIKAELAAEEG [APC8516-AA]
- interaction score [9]: -1.87
- interaction score ([1]; mean of both orientations): -1.56
- interaction score [2]: -1.64
- interaction score [3]: -1.91
- interaction score [4]: -1.63

Binder: DEIAALEAKNAALKAEIAALEAENAALEG [4H451-AA]
- interaction score [10]: -1.68
- interaction score [11]: -1.88
- interaction score [12]: -1.98
- interaction score [13]: -1.53
- interaction score [14]: -0.954
- interaction score [15]: -1.9
- interaction score [16]: -1.74
- interaction score [17]: 0.209

Binder: DEIQQLKQKNQELKQEIQELEWKNQELKQ [4H968-bN]
- interaction score [18]: 0.264

Binder: DEIAQLKQKNAELKQEIAELEWKNAQLKQ [4H968-bA]
- interaction score [8]: -1.46
